The target in the data set is RecA (UniProt P0A7G6 P0A7G6:2-353). Kind of data set: FP; positive control; 10 mM Mg acetate, 2 mM ATP, 37 C. To be noted: tags: New England Biolabs; label: 5' fluorescein. The method, then:
FIG. 2A, bottom: Purified RAD51 protein (wild type or mutant F86E) were serially diluted. RecA (New England Biolabs) was used as a positive control. Proteins were added to a 5′terminal fluorescein conjugated oligonucleotide (45 bases of dT) at a 1 μM nucleotide concentration. The mixture was incubated at 37° C. for 30 minutes in 384-well plates containing a reaction buffer (30 mM Tris/acetate pH 7.5, 10 mM Mg²⁺/acetate, 2 mM ATP, 0.1 mM DTT, 0.5 μM BSA). Fluorescence polarization was measured with a plate reader (filters: excitation=485 nm, emission=510 nm). FIG. 2B, top: Varying concentrations of 5′terminal fluorescein conjugated oligonucleotide were used to determine the threshold RAD51 concentration.
RAD51 filament formation can also be studied using oligonucleotides that are end-labeled with a fluorescent tag. Binding of proteins to this substrate DNA can be detected as an increase in anisotropy (or polarization) of the fluorescent tag. This method has been used to monitor the DNA-binding activity of yeast RAD51 (Kim et al., 2001) and RecA (Wittung et al., 1997; Ellouze et al., 1999), which is the […] homolog of RAD51. In this example, this method was modified so that very small sample volumes (30 μl) can be monitored in a high-throughput scale, using 384-well plates and a fluorescent plate reader. […]

Sequence of RecA (P0A7G6 2-353, one chain of several): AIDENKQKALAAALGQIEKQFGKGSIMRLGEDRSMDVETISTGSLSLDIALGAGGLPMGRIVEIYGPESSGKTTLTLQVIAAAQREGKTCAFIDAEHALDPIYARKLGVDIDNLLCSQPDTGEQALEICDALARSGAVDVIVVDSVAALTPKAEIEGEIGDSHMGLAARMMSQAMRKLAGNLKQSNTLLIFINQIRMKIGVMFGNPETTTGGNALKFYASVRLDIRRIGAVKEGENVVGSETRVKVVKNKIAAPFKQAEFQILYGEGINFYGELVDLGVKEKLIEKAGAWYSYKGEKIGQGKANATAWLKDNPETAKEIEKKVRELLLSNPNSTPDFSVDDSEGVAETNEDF

B1: oligo dT45 (ssDNA)
DNA: TTTTTTTTTTTTTTTTTTTTTTTTTTTTTTTTTTTTTTTTTTTTT
Take B1: the binding result is “binds”.

The values are drawn from patent US20140142103, “Methods and Compositions for Modulating Rad51 and Homologous Recombination” (The University of Chicago, published 2014).
